The target in the assay is ribosomal protein uS12 of Thermococcus celer (T. celer (endogenous in T. celer cells), UniProt P29161 1-147). Nature of the assay: cryo-EM structure; post-splitting complex from 1 nmol T. celer 70S split by ABCE1^IIEA (8 uM), aPelota and aRF1 (5 uM each), 0.5 mM AMP-PNP, 50 mM HEPES-KOH pH 7.5, 30 mM KCl, 10 mM MgCl2, 2 mM DTT, 65 °C 15 min; cross-linked with 1% formaldehyde; 30S fractions of a 10-30% sucrose gradient. Conditions: both partners purified.

B1: ABCE1^IIEA (E238A/E485A), hydrolysis-deficient ABCE1 from Saccharolobus solfataricus (enzyme)
chain: MRVAVINYDFCKPDKCNLECINFCPVDRSGGKAIELSEIVKGKPVIYEETCIGCGICVKKCPYEAISIVNLPDELEGEVIHRYKVNGFKLFGLPTPKNNTILGVLGKNGVGKTTVLKILAGEIIPNFGDPNSKVGKDEVLKRFRGKEIYNYFKELYSNELKIVHKIQYVEYASKFLKGTVNEILTKIDERGKKDEVKELLNMTNLWNKDANILSGGGLQRLLVAASLLREADVYIFDAPSSYLDVRERMNMAKAIRELLKNKYVIVVDHDLIVLDYLTDLIHIIYGESSVYGRVSKSYAARVGINNFLKGYLPAENMKIRPDEIKFMLKEVSDLDLSKDLKTKMKWTKIIKKLGDFQLVVDNGEAKEGEIIGILGPNGIGKTTFARILVGEITADEGSVTPEKQILSYKPQRIFPNYDGTVQQYLENASKDALSTSSWFFEEVTKRLNLHRLLESNVNDLSGGELQKLYIAATLAKEADLYVLDAPSSYLDVEERYIVAKAIKRVTRERKAVTFIIDHDLSIHDYIADRIIVFKGEPEKAGLATSPVTLKTGMNEFLRELEVTFRRDAETGRPRVNKIGSYLDRVQKERGDYYS
notes: ABCE1, ABC-type twin-ATPase, Saccharolobus solfataricus; both catalytic glutamates changed to alanine; Carries iron-sulfur clusters (FeSD); also called ABCE1 E238A/E485A; source: E. coli, recombinant (pSA4 plasmid), purified
Regarding B1, the binding result was “binds”.

The values above are taken from publication PMC7196836, “Molecular analysis of the ribosome recycling factor ABCE1 bound to the 30S post‐splitting complex” (The EMBO Journal, 2020).
